For this data set, the target named is T1, HIS-GST-Nxf3 (66-336), RRM-LRR domain (Drosophila melanogaster, UniProt Q8IQK4 66-336).
T1 sequence: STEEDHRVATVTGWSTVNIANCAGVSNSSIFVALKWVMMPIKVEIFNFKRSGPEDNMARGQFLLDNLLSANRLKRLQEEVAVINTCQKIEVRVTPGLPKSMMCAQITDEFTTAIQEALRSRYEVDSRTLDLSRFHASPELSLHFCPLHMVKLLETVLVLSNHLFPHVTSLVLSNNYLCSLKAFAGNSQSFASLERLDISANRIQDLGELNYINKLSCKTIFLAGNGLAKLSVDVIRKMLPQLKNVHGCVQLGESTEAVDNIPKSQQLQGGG
The experiment in a line: EMSA.

B1: 35 nt ssRNA (ssRNA)
RNA: CUCAUCUUGGUCGUACGCGGAAUAGUUUAAACUGU
B1: the binding result is “binds”.

Values taken from paper doi:10.1101/596171.
